The DeepSol protein solubility set

Experiment: soluble on expression in E. coli; label from the status in PepcDB or PDB records

Sequence | soluble on expression in E. coli
MHYSQMRWMFFCLTALLHGSFIVNAAKILVYCPSISKSHVLLCSKYADLLHNAGHDTVLFIPSYSKLLDNYDGAKHAKVWRLHNVTEAYDTKLGTLANVMENSHIGFIDRLTFDADFWIDMCADLLGKLPEMQHIIDYKFDLVIYNEIDPCTPAIVRLFNIPKTVLLSSEAIMDKVAWNLGKPMTTFAES | not soluble
MIAAQLLAYYFTELKDDQVKKIDKYLYAMRLSDETLIDIMTRFRKEMKNGLSRDFNPTATVKMLPTFVRSIPDGSEKGDFIALDLGGSSFRILRVQVNHEKNQNVHMESEVYDTPENIVHGSGSQLFDHVAECLGDFMEKRKIKDKKLPVGFTFSFPCQQSKIDEAILITWTKRFKASGVEGADVVKLLNKAIKKRGDYDANIVAVVNDTVGTMMTCGYDDQHCEVGLIIGTGTNACYMEELRHIDLVEGDEGRMCINTEWGAFGDDGSLEDIRTEFDRAIDAYSLNPGKQLFEKMVSGMYLGELVRLILVKMAKEGLLFEGRITPELLTRGKFNTSDVSAIEKNKEGLHNAKEILTRLGVEPSDDDCVSVQHVCTIVSFRSANLVAATLGAILNRLRDNKGTPRLRTTVGVDGSLYKTHPQYSRRFHKTLRRLVPDSDVRFLLSESGSGKGAAMVTAVAYRLAEQHRQIEETLAHFHLTKDMLLEVKKRMRAEMELGLRKQTHNNAVVKMLPSFVRRTPDGTENGDFLALDLGGTNFRVLLVKIRSGKKRTVEMHNKIYAIPIEIMQGTGEELFDHIVSCISDFLDYMGIKGPRMPLGFTFSFPCQQTSLDAGILITWTKGFKATDCVGHDVVTLLRDAIKRREEFDLDVVAVVNDTVGTMMTCAYEEPTCEVGLIVGTGSNACYMEEMKNVEMVEGDQGQMCINMEWGAFGDNGCLDDIRTHYDRLVDEYSLNAGKQRYEKMISGMYLGEIVRNILIDFTKKGFLFRGQISETLKTRGIFETKFLSQIESDRLALLQVRAILQQLGLNSTCDDSILVKTVCGVVSRRAAQLCGAGMAAVVDKIRENRGLDRLNVTVGVDGTLYKLHPHFSRIMHQTVKELSPKCNVSFLLSEDGSGKGAALITAVGVRLRTEASS | soluble
MIALFNKLLDWFKALFWKEEMELTLVGLQYSGKTTFVNVIASGQFNEDMIPTVGFNMRKITKGNVTIKLWDIGGQPRFRSMWERYCRGVSAIVYMVDAADQEKIEASKNELHNLLDKPQLQGIPVLVLGNKRDLPGALDEKELIEKMNLSAIQDREICCYSISCKEKDNIDITLQWLIQHSKSRRS | soluble
MIARPTPALGPTPIPRGGGILPRMDRIVIRGAREHNLKNISLELPRGKFIVITGVSGSGKSTLAFDTIYAEGQRRYVESLSSYARQFLGVMDKPEVESIEGLSPAISIDQKTTSHNPRSTVGTVTEIHDYLRLLFARVGQAFCPECGRPIEKQSASEITDRLLKRPPGTRAILMAPLVRGRKGEYRKLFQQLLKEGYARVRVDGVIYLLEEAQGLSLEKYEKHDIDLVIDRVVLKEEERPRIAEAVELALLRGEGLLRVLYPDTGEEELFSEKFACPEHGSVLEELEPRIFSFNSPYGACPACSGLGYRQEFDPELVVNPELSLAEGAILPWSRGRDTGRSYLWDRLRALAEHLGFDLKTPFKDLPEEAKRAVLYGLPEPFEVVFRRGGKETFRVEVRYEGVIPWLEKRYQESDSEGVREALEGFMSLRPCPACGGTRYKREVLSVKVAGRNIAEVSALPVREALAFFQGLEKTLPPFQAQIARPILREIVERLGFLVDVGLDYLTLDRAANTLSGGEAQRIRLATQVGSGLTGVLYVLDEPSIGLHPRDNQRLIRTLKRLRDLGNTLIVVEHDEETMRAADWIVDMGPGAGIHGGEVVAQGTLEDILKSPQSLTGAYLRGEKRIPVPKERRKGNGKWLVLKGARAHNLKNVTLRIPLGRFVAITGPSGSGKSTLVHDVLYAALAQRLMRAKTTPGPYEALEGVEHLDKVIEIDQSPIGRTPRSNPATYTGVFDEIRDLFAKTPEARKRGYGPGRFSFNVKGGRCEACGGDGTVKIEMLFLPDLYVPCEVCKGKRYNKETLEVKLRGKSIADVLDMTVEEALDFFQNVPSIARKLQLMVDVGLGYMKLGQPSPTLSGGEAQRIKLATELGRKATGRTLYILDEPTTGLHFDDVAKLLSVLHRLVDAGNTVVVIEHNLDVVKTADWVIDLGPEGGDRGGEIVAEGTPEEVALTGSPTGAFLARIPEIAARIGVAAD | soluble
MIARYQTPEMARLWSEESRYRMWARVEAYALEAWEALGEVPKGLSARLLAKLEEKPLDGAFARRVAELEAVTRHDLVAFTRALAEWTGDEEVGRYLHLGLTSSDIVDTAQNALLVEALGLVLEELKGVEEALKALALRHKHTPAIARTHGVHAEPTSFGLRFLFFLAAFQRDEERLKRARETIGVAMLSGSVGNYAHVPPEVEAHVASRLGLRPEPLSTQVVPRDRHAEVMAALAILGGNIERVAVELRHLQRTEVLEAQEPFHEGQTGSSSMPHKKNPVGLENLTGVARLLRGYLFPALEDIALWHERDISHSSVERVILPDATTLAHYALRRLKGILEGLEVFEENLARNLDLTRGLVYSQQVLNALIARGLSRNKAYALVQRNALRSWKEGKSFLELLEADPENPLKGKELRALFDPKPFLRHVDAIYARFGL | soluble
MIATLLSSLLLTGPISAGAETQGLLPAQDLLPDIGTSAGATLSIDQEMAMGDFYVRQMRASAPLIYDPLLTQYINTLGNRLVANANSVRTPFHFYLVNNDQINAFAFFGGNVVLHSALFRYTDNESELASVLAHEISHVTQRHLARAMEEQQRLAPLTWVGVLGSILLTMASPQAGMAGLSGTLAGAQQGIISFTQGNEQEADRIGIQVLQRSGFDPQAMPNFLQKLADQSRYVSKPPEMLLTHPLPDSRLSDARNRANQMKPHPTASSQDYLFAKMRILGMYGADENSLTPELLDKLSKGTVREQLAAKYGQAVQLYQAKKYDEARNLLQPLLAQQPGNIWFLDLMTDIDLGQNKSAAAIARLQNAMVKQNDEPVLQLNLANAYVQGRQPAAAIKLLHRYTFAYPNDPNGWDLLAQATATQGLRDQELAARAESLALSGKLTQAIGLLSDASARVKLGSLEQARYDARIDQLRRLNERFRKYQKS | not soluble
MIDFRPFYQQIATSHLSAWLETLPLQLKQWEKTAHSDYAKWAKIATSMPTSPTSINLTDKVEAVLAEALPEGEKQYLIYRLKQLMPWRKGPYHLHGVHIDTEWRSDFKWQRVLPHLAPLKDRTILDVGCGNGYHMWRMVGEDAQMVVGIDPTELFLCQFEAVRQLLGNDRRANLIPLGLEQMQPLAAFDTVFSMGVLYHRKSPLDHLSQLKAQLVKGGELVLETLIIDGDINDILTPADRYAKMKNVYFIPSVAALINWLKKIGFKNARCVDQSVTTLAEQRKTEWLENESLVDFLDPTDQRKTIEGLPAPKRAVILANA | not soluble
MIDISVVIPLLNEAESIPELFAWIRRVMNEHGYSYEVIFVDDGSTDGSWSVIERLQAEHPEVKGIKFRRNYGKSAGLQCGFARTQGQVVITMDADLQDSPDEIPELYRMVTEGGYDLVSGWKRKRYDPLFSKNLPSKLFNATARKLSGIKLHDFNCGLKAYRHEVVENIELYNDMHRYIPYLAKSAGFGRIGEKVVQHQARKYGSSKFGISRFFNGYLDLLTLWFISKFGRKPMH | not soluble
MIDKSSKRDKEVEPLKDNISILIMGVDGSEMRKSQYGEAVRTDALLLATINKDDKSVKLVSIPRDSRVYIPSRKKLDKITHAHVFGGVESTRDTVERFLNVPVDYYVKFNFESFVQIVDSLGGIDIDVPVTFTEQDSKDQAGMIHLEKGYQHLNGEQALALARTRKIDSDAMRGQRQQLVIEAIAKKAMSVQSISKMGSLLDAVDKNMKTNLTFDDMLAITKNMAGSNLEMEKMQVEGTDKRIGGIYYYIPNEKNVKDISKKLNEHLGVLEHHHHHH | soluble
MIDLAKDHLKKVLSLCGANRDCEYYPCHYENQSCLWCYCPFYPCEDENLGEFVKRKDGSLIWSCMKCNWIHKPEIASEVLKEITELTKDKKINDSIEFIDNHEILMNIKRRVEEKLGKDNSV | not soluble
MIDPREPIVTPVPVEELRPTQITVGMREVALKRQMIREQDAKKKTGAFLGKHMVPVVLGPKNRNYVTDHHHLARALLEEGVKDVLVTVISDLSALDKDTFLFVLDNRGWMHPFDESGRRRDYSAIPKTIGELIDDPYRSMAGELRRMGGFAKDTTPFSEFIWADFLRRRIDRNAVAKNFDKAMKEALSLAKGKDADYLPGWCGPTSDAAALEHHHHHH | soluble
MIEFRNVSKVYPNGTKGLNNINLKIQKGEFVVMVGLSGAGKSTLLRSVNRLHEITEGEIMIEGESITAAKGKGLRRMRRDIGMIFQSFNLVKRSTVLKNVLAGRVGYHSTLRTTLGLFPKEDLELAFQSLKRVNILEKAYARADELSGGQQQRVSIARALAQEAKIILADEPVASLDPLTTKQVLEDLKKINEDFGITTIVNLHSIDLARQYATRIIGLHAGEIVFDGLVEEATDEKFAEIYGDVVQKSELLEVAVK | not soluble
MIEFVYPHTQLVAGVDEVGRGPLVGAVVTAAVILDPARPIAGLNDSKKLSEKRRLALYEEIKEKALSWSLGRAEPHEIDELNILHATMLAMQRAVAGLHIAPEYVLIDGNRCPKLPMPAMAVVKGDSRVPEISAASILAKVTRDAEMAALDIVFPQYGFAQHKGYPTAFHLEKLAEHGATEHHRRSFGPVKRALGLAS | soluble
MIELHQKRLSAPKTYKIPRKVSKWVVKPSPGPHNKEAIPLLVLVRDFLELADTGREARRIISAGEILVDGVVRKDYKFPVGLFDVVTIPKLEKSYRILFDEKGRYIPKEVEDADLKLYKITNKTLVRGGKVQLNLFDGTNILGSNDYKTKDSILLRIPEKEVVDHLKFEEGALVMITGGTHAGEIGRIKSYKIVRSSAPNLVTVEGEERDITTIEDYVFVVGKKDSDKPVIDLGVLEHHHHHH | soluble
MIERRKIAVIGSGQIGGNIAYIVGKDNLADVVLFDIAEGIPQGKALDITHSMVMFGSTSKVIGTNDYADISGSDVVIITASIPGRPKDDRSELLFGNARILDSVAEGVKKYCPNAFVICITNPLDVMVSHFQKVSGLPHNKVCGMAGVLDSSRFRTFIAQHFGVNASDVSANVIGGHGDGMVPATSSVSVGGVPLSSFIKQGLITQEQIDEIVCHTRIAWKEVADNLKTGTAYFAPAAAAVKMAEAYLKDKKAVVPCSAFCSNHYGVKGIYMGVPTIIGKNGVEDILELDLTPLEQKLLGESINEVNTISKVLDNAPAAGA | soluble
MIESERKQIIDLIKKEVIPAIGCTEPIAVALCVAKAAETLGMKPEKIEVLLSANILKNAMGVGIPGTDMVGLPIAVALGALIGRSEYQLEVLRDCTPEAVEQGKLFIAEKRICISLKEDITEKLYIEVICTAGSQKATAVIAGGHTTFVYIATDEKVLLDKQQTANEEEEDASLELNLRKVYDFALTSPLDEIRFILDTARLNKAAAEQAFKGNYGHSLGKMLRGTYEHKVMGDSVFSHILSYTSAACDARMAGAMIPVMSNSGSGNQGISATLPVVVFAEENGKTEEELIRALMLSHLTVIYIKQSLGRLSALCGCVVAATGSSCGITWLMGGNYNQVAFAVQNMIANLTGMICDGAKPSCALKVTTGVSTAVLSAMMAMEDRCVTSVEGIIDEDVDQSIRNLTRIGSQAMNETDKMVLDIMTHKGGC | not soluble
